Patent publication US20060040325A1 (AstraZeneca / MedImmune, published 2006)

What was measured:
[1] = biological target: T1, human C1q complement protein (human, UniProt P02745 23-245; P02746 28-253; P02747 29-245); assay: ELISA: antibody coated on the plate, human C1q, anti-C1q antibody, HRP conjugate, OD450
T1 construct: Bought protein ('Quidal, SanDiego')
Procedure: ELISA for C1q Binding: Microtiter plates were coated with 50 μl of test antibody at concentration range from 20 μg/ml to […] and incubated at 4° C. overnight. The plate was then blocked with 5% nonfat powdered milk for 60 min at 37° C. 50 μl of 5 μg/ml human C1q complement protein (Quidal, SanDiego) was added to each well and inclubated for 60 min at 37° C. 50 μl of 1:1000 dilution of anti-complement C1q antibody (Biodesign) was added to each well and incubated for 60 min at 37° C. 50 μl of 1:1000 dilution of donkey anti-sheep/goat antibody-conjugated HRP (PIERCE) was added to each well and incubated for 60 min at 37° C. Detection was carried out by adding 30 μl of tetramethylbenzidine (TMB) substrate (Pierce) followed by neutralization with 30 μl of 0.2 M H₂SO₄. The absorbance was read at 450 nm.

[2] = biological target: T2, FcγRIIIA-streptavidin fusion protein (tetramer) (human; Streptomyces avidinii, UniProt P08637 17-208); assay: ELISA: antibody captured on protein A/G, FcγRIIIA tetramer, biotin-HRP, OD450
T2 construct: extracellular domain; also called FcγRIIIA tetramer; Fcγtetramer; not shown: streptavidin, amplified with primers SA1/SA2 from genomic DNA of Streptomyces avidinii
T2 sequence (P08637 17-208 limits assumed): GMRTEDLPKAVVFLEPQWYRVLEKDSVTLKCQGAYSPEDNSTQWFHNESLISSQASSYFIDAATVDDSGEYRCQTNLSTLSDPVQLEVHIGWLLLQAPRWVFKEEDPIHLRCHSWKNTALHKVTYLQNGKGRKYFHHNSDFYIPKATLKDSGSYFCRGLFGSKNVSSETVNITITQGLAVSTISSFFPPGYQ
Procedure: ELISA for FcγRIIIA Tetramer Binding: Microtiter plates were coated with protein A/G (PIERCE) solution (0.25 μg/ml) and incubated at 4° C. overnight. The plates were then washed with PB S/0.1% Tween and any remaining binding sites were blocked with 1% BSA. 50 μl of test antibody at 1:1 dilution (from 5000 ng/ml to 4.9 ng/ml), was added to each well and inclubated for 60 min at 37° C. 50 μl of 1:500 dilution of the Fcγtetramer was added to each well and incubated for 60 min at 37° C. followed by washing. 50 μl of 1:1000 dilution of biotin-conjugated HRP (PIERCE) was added to each well and incubated for 30 min at 37° C. Detection was carried out by adding 30 μl of tetramethylbenzidine (TMB) substrate (Pierce) followed by neutralization with 30 μl of 0.2 M H₂SO₄. The absorbance was read at 450 nm.

[3] = biological target: T3, FcγRIIIA (soluble receptor used as analyte in the BIAcore runs) (human, UniProt P08637 17-208); assay: SPR (BIAcore 3000), IgG amine-coupled to CM5, soluble FcγRIIIA injected; steady-state isotherm; Run 3
T3 construct: extracellular domain; The BIAcore methods only say 'FcγRIIIA'; also called FcγIIIA
T3 sequence (P08637 17-208): as the sequence (P08637 17-208 limits assumed) above
Procedure: (§1) FcγRIIIA was serially diluted in 0.01 M HEPES pH 7.4 containing 0.15 M NaCl, 3 mM EDTA and 0.005% P20, at concentrations ranging from 16 uM down to 7.8 nM. Duplicate injections of each concentration were made. All binding experiments were performed at 25° C., and at a flow rate of 10 uL/min. Binding was monitored for 25 min. Following each injection of FcγRIIIA, the IgG surfaces were regenerated with a 30 sec. pulse of 5 mM HCl. FcγRIIIA was also passed over a blank reference cell which is connected, in series, to the IgG-containing flow cells. The steady-state binding curves were also corrected for injection artifacts by subtraction of buffer injections. This doubly-corrected data was then fit to a steady-state isotherm provided by the instrument manufacturer (Pharmacia Biosensor, Uppsala, Sweden) to derive the respective equilibrium binding constants (KD). Separately, a Scatchard plot of the Req data from each IgG surface was constructed to confirm the results of the binding isotherms.

[4] = biological target: T3, FcγRIIIA (soluble receptor used as …); assay: SPR (BIAcore 3000), IgG amine-coupled to CM5, soluble FcγRIIIA injected; Scatchard plot of Req; Run 3
Procedure: as §1

[5] = biological target: T3, FcγRIIIA (soluble receptor used as …); assay: SPR (BIAcore 3000), Run 3; calculated from isotherm KD values against wild type 3F2
Procedure: as §1

T1 sequence (P02745 23-245 limits assumed, chain 1 of 3): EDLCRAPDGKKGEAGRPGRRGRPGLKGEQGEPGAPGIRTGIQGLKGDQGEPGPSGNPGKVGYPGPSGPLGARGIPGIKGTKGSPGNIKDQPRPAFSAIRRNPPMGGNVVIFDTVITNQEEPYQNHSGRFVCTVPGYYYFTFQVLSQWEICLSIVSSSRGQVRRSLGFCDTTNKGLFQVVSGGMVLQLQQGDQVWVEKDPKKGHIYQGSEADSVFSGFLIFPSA
T1 sequence (P02746 28-253 limits assumed, chain 2 of 3): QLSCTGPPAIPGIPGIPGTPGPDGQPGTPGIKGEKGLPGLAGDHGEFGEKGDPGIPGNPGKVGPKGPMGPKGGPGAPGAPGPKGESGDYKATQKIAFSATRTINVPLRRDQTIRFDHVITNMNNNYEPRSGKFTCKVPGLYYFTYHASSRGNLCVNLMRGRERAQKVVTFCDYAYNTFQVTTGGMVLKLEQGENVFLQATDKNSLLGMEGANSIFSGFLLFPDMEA
T1 sequence (P02747 29-245 limits assumed, chain 3 of 3): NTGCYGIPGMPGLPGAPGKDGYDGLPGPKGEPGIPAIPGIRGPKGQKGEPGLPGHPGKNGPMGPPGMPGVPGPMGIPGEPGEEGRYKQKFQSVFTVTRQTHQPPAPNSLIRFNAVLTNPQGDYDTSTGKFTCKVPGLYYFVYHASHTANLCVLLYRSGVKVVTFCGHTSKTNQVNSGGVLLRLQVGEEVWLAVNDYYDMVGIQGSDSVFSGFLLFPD

| binding result [1] | EC50 (read off the curve) [2] [µg/mL] | Kd [3] [nM] | Kd [4] [nM] | Fold increase over WT [5] [fold] | Binder |
| --- | --- | --- | --- | --- | --- |
| binds | ~0.2 | 15600 | 14200 |  | 3F2 (wild type anti-EphA2 antibody, IgG1) (antibody, domain: IgG1 heavy chain constant region; 3F2 variable regions placed in the Vitaxin® IgG1 plasmid and made in NS0 cells; The light chain constant region is not described; also called 3F2-wt; 3F2-WT; copies: 2 + 2) heavy: not shown VL: AIQLTQSPSSLSASVGDRVTITCRASQSISNNLHWYLQKPGQSPQLLIYYGFQSISGVPSRFSGSGSGTDFTLTISSLQPEDFATYYCQQANSWPLTFGGGTKLEIK |
| binds | ~0.05 | 158 | 162 | 99 | 3F2-3M (3F2 Fc variant S239D/A330L/I332E, IgG1) (antibody, name in EU numbering, domain: IgG1 heavy chain constant region; Made in NS0 cells; The light chain constant region is not described; also called 3F2 S239D/A330L/I332E; 3M Fc variant; copies: 2 + 2) heavy: EVQLVESGGGVVRPGGSLRLSCAASGFTVSDYSMNWVRQAPGKGLEWIGFIRNKANAYTTEYSASVKGRFTISRDDSKNTLYLQMNSLKTEDTAVYYCTTYPRYHAMDSWGQGTMVTVSSASTKGPSVFPLAPSSKSTSGGTAALGCLVKDYFPEPVTVSWNSGALTSGVHTFPAVLQSSGLYSLSSVVTVPSSSLGTQTYICNVNHKPSNTKVDKKVEPKSCDKTHTCPPCPAPELLGGPDVFLFPPKPKDTLMISRTPEVTCVVVDVSHEDPEVKFNWYVDGVEVHNAKTKPREEQYNSTYRVVSVLTVLHQDWLNGKEYKCKVSNKALPLPEEKTISKAKGQPREPQVYTLPPSRDELTKNQVSLTCLVKGFYPSDIAVEWESNGQPENNYKTTPPVLDSDGSFFLYSKLTVDKSRWQQGNVFSCSVMHEALHNHYTQKSLSLSPGK VL: AIQLTQSPSSLSASVGDRVTITCRASQSISNNLHWYLQKPGQSPQLLIYYGFQSISGVPSRFSGSGSGTDFTLTISSLQPEDFATYYCQQANSWPLTFGGGTKLEIK |
| binds | ~0.05 | 1770 | 1680 | 8.8 | 3F2-1M (3F2 Fc variant I332E, IgG1) (antibody, name in EU numbering, domain: IgG1 heavy chain constant region; Made in NS0 cells; The light chain constant region is not described; also called 3F2 I332E; 3F2-IM; copies: 2 + 2) heavy: not shown VL: AIQLTQSPSSLSASVGDRVTITCRASQSISNNLHWYLQKPGQSPQLLIYYGFQSISGVPSRFSGSGSGTDFTLTISSLQPEDFATYYCQQANSWPLTFGGGTKLEIK |
